# Values of other authors, collected in patent US20060289354A1, “Method and composition to control the growth of microorganisms in aqueous systems and on substrates” (Buckman Laboratories International, Inc., priority 2005, published 2006).
# Read-outs that look alike come from different tables or passages of the source.
# Settings: for shelf life: original sealed package
substance,measurement,setting,value
lactoperoxidase [LP],effect of exposure to elevated temperature,>65° C. for short time (10 minutes),denaturation of the protein and loss of the activity
same,shelf life,8° C.,≥ 2 years
same,shelf life,20° C.,at least 1 year
same,optimal pH,typical commercial form,5.0-6.5
